{
  "source": "paper PMC12561426",
  "about": "“Dissecting the Interplay Between NRF2 and BACH1 at CsMBEs”",
  "binders": {"B1": {"name": "HMOX1 CsMBE 30-mer (dsDNA)", "DNA 1": "CTCGGGACCGTGACTCAGCAGGAAAAACAC", "DNA 2": "GTGTTTTTCCTGCTGAGTCACGGTCCCGAG"}},
  "key": {"[1]": {"target": "NRF2 DBD of NRF2-sMafGχ;sMafG DBD of chimeras (Homo sapiens?;Homo sapiens?, UniProt Q16236;O15525 451-567;1-162, |)", "test": "EMSA; apparent; TEV and 3C cleaved; 150 mM NaCl, 50 mM HEPES pH 7.9, 10% glycerol, 1 mM TCEP, 1 mM DTT, 2 mM MgCl2; 3 nM DNA; TEV and 3C 50 ug/mL each, 4 h 25 °C; competition then O/N 4 °C; gels 4 °C in 1X TBE", "settings": "protein: recombinant;recombinant; tags: 3C/TEV-cleavable linker with His tags to sMafG;fused C-terminal of the linker; copies: 1;1; label: 5' fluorescein on forward strand; blunt"}, "[2]": {"target": "BACH1 DBD of BACH1-sMafGχ;sMafG DBD of chimeras (Homo sapiens?;Homo sapiens?, UniProt O14867;O15525 511-627;1-162, |)", "test": "EMSA; apparent; TEV and 3C cleaved; 150 mM NaCl, 50 mM HEPES pH 7.9, 10% glycerol, 1 mM TCEP, 1 mM DTT, 2 mM MgCl2; 3 nM DNA; TEV and 3C 50 ug/mL each, 4 h 25 °C; competition then O/N 4 °C; gels 4 °C in 1X TBE", "settings": "protein: recombinant;recombinant; tags: 3C/TEV-cleavable linker with His tags to sMafG;fused C-terminal of the linker; copies: 1;1; label: 5' fluorescein on forward strand; blunt"}},
  "data": [
    {"binder": "B1", "values": [
      {"measurement": "Kd", "setting": "[1]", "value": "58 ± 3", "unit": "nM"},
      {"measurement": "Kd", "setting": "[2]", "value": "49 ± 1.9", "unit": "nM"}
    ]}
  ]
}
